The values below come from patent publication US20240376170A1 (BRIGHT PEAK THERAPEUTICS, published 2024).

Experiment [1] addresses T1, IL-2 receptor βγ complex (human, UniProt P14784 27-551; P31785 23-369).
T1 sequence (looked up) 1: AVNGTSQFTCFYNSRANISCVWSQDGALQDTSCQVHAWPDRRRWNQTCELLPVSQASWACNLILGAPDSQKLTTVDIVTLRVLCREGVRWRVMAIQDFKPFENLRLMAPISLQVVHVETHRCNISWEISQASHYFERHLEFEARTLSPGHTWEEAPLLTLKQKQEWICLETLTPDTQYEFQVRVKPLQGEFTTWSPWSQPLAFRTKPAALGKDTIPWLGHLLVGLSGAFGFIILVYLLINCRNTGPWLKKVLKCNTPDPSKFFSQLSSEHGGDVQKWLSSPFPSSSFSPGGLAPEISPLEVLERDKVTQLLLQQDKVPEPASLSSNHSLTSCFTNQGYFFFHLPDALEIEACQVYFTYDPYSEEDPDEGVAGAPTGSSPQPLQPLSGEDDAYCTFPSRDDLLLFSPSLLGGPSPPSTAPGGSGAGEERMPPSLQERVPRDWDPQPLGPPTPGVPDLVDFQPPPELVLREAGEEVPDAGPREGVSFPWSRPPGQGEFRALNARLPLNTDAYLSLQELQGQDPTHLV
T1 sequence (looked up) 2: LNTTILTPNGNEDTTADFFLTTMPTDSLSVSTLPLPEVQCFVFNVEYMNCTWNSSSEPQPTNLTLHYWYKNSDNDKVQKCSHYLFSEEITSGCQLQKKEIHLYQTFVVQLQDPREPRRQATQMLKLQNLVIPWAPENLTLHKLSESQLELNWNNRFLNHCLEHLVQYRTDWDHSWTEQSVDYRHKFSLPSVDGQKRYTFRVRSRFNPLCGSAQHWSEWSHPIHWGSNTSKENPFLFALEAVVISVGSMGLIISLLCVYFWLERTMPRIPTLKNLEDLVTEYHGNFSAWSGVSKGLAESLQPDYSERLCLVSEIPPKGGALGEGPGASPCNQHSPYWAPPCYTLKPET
The experiment in a line: cell-based or functional assay.

For experiment [2], the target named is T1, IL-2 receptor βγ complex. The experiment in a line: cell-based or functional assay. The source holds these as a separate data set.
The target of experiment [3] is T2, recombinant human IL-2 receptor beta containing a His-tag and Avi-tag (human, UniProt P14784 27-239).
T2 construct: Bought; attached to the SAX2 biosensor; also called CD122; IL-2R β; not shown: His-tag and Avi-tag
T2 sequence (looked up): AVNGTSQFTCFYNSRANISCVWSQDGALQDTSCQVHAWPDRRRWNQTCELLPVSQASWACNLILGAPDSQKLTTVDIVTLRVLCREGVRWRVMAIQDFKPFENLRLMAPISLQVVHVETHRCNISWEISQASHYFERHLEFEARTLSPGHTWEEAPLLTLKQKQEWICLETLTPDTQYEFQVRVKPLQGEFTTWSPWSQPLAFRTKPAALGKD
The experiment in a line: BLI (Octet R8), receptor on SAX2 sensor. On the procedure: (§1) Bilayer interferometry (BLI) assays were used to measure the binding constants between activatable IL-2 polypeptides (and activated versions thereof) to IL-2 receptor subunits or receptor complexes. BLI assays were conducted on an Octet® R8 instrument. Assay plates were 96 well, polypropylene, F-bottom (chimney well), black microplates (Greiner Bio-one, Cat. No: 655209). The biosensors were Octet® SAX2 (Sartorius, Cat. No: 18-5136). The assay buffer was 1X Kinetic Buffer (Sartorius, Cat. no: 18-5136) or Phosphate Buffered Saline (PBS) that contained 0.02% (v: v) Tween 20 (Polysorbate 20) and 0.1% (w/v) bovine serum albumin (BSA). The sensor was regenerated between measurements in 10 mM glycine pH 2.7 buffer.
(§2) Sensor attached receptors were either recombinant human IL-2 receptor beta containing a His-tag and Avi-tag™ (R&D Systems™) or an Avi-tag™ Fc with human IL-2R beta and IL-2R gamma attached (Acrobiosystems Cat. no: ACRB-ILG-H₈₂F3-25UG). Receptors were reconstituted from lyophilized powder to 500 μg/ml in PBS. Analytes were diluted in Kinetic buffer to 300 nM, then serially diluted to lower concentrations.

Experiment [4] addresses T3, Avi-tag Fc with human IL-2R beta and IL-2R gamma attached (Acrobiosystems ACRB-ILG-H82F3-25UG) (human, UniProt P14784 27-239; P31785 23-262).
T3 construct: Bought; attached to the SAX2 biosensor; also called CD122 CD132; IL-2R βγ; not shown: Fc and Avi-tag
T3 sequence (looked up) 1: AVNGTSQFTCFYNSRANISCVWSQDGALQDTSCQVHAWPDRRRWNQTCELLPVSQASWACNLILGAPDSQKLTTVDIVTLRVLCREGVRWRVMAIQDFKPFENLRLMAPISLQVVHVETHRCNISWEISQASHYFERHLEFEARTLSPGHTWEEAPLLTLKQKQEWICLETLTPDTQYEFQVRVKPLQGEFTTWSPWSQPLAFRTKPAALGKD
T3 sequence (looked up) 2: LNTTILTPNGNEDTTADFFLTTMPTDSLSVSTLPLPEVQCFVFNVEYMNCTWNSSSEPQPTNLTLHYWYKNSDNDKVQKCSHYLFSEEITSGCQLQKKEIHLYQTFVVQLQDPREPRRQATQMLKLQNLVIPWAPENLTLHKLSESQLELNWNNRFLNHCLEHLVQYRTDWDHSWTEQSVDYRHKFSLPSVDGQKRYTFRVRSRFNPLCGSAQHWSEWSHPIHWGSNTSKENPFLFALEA
Kind of experiment: BLI (Octet R8), receptor on SAX2 sensor. On the procedure:
as §1, §2

Experiment [5] addresses T4, IL-2Rβγ on HEK-Blue IL-2Rβγ reporter cells (InvivoGen) (UniProt P14784 27-551; P31785 23-369, limits assumed).
T4 sequence (looked up) 1: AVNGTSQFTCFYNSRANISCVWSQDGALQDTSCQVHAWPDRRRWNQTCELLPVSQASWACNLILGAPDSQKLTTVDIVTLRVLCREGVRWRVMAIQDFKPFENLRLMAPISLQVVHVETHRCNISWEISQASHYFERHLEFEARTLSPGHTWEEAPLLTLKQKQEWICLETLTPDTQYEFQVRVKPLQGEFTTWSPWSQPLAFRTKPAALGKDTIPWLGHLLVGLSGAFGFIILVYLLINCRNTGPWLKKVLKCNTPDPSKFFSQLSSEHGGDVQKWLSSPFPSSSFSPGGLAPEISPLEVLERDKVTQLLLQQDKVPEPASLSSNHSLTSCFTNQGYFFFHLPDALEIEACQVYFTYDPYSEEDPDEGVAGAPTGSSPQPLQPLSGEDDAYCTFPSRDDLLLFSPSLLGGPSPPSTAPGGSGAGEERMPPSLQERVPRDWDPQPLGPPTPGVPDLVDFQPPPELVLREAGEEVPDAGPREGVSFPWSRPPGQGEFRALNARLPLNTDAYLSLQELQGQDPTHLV
T4 sequence (looked up) 2: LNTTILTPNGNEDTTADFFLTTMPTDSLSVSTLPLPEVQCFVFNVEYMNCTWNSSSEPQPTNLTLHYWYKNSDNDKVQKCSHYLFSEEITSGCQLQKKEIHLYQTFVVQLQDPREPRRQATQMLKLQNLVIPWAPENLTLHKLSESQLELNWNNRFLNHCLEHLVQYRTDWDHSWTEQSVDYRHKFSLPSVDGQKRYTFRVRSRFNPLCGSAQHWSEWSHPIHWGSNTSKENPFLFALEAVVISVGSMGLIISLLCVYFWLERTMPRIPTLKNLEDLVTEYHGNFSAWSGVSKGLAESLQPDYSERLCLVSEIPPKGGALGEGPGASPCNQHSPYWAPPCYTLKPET
The experiment in a line: cell-based or functional assay.

Experiment [6] deals with T5, IL-2 receptor βγ complex on human T cells (human, UniProt P14784 27-551; P31785 23-369).
T5 sequence (looked up) 1: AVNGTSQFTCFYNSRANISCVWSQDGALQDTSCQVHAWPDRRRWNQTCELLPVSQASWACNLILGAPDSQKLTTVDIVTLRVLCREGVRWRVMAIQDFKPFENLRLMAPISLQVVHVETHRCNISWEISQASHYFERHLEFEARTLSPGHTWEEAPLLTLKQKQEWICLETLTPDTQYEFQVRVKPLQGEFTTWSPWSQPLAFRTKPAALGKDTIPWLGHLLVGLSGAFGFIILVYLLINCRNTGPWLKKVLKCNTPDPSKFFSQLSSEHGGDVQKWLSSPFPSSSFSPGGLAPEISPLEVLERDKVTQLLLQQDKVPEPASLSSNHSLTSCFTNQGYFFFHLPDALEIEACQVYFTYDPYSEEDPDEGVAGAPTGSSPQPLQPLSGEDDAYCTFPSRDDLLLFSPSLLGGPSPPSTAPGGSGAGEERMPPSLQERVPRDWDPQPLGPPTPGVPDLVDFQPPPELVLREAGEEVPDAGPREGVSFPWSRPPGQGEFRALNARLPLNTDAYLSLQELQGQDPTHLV
T5 sequence (looked up) 2: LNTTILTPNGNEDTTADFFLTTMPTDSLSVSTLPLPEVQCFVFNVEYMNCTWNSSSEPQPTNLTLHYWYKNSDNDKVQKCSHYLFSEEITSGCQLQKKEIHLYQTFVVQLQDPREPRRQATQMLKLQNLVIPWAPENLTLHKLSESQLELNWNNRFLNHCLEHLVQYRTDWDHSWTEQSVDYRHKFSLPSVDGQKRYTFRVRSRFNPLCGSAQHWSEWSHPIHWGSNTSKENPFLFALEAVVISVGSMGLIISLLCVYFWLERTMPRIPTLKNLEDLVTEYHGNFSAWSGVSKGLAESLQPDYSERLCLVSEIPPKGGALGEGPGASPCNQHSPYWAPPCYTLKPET
The experiment in a line: cell-based or functional assay.

Bridges are numbered along the chain shown (N, C = ends). Primed or numbered codes have the meaning given here. [ ]: non-standard residue; d: D form. Ygp(4) = Tyr with amino-capped PEG8 (O-(8x polyethylene glycol-amino)-tyrosine); Yn3(4) = Tyr with azide-capped PEG9 (O-(9x polyethylene glycol-azido)-tyrosine); Ygp = O-(8x polyethylene glycol-amino)-tyrosine (Tyr, amino-capped PEG8); Yn3 = O-(9x polyethylene glycol-azido)-tyrosine (Tyr, azide-capped PEG9); Ygp(3) = O-(PEG8-amino)-tyrosine; Yn3(3) = O-(PEG9-azido)-tyrosine; PEG4′ = 4x polyethylene glycol; PEG9′ = 9x polyethylene glycol; hSer = N[C@@H](CCO)C(=O)O; Nle = CCCC[C@H](N)C(=O)O

B1: CMP-300 (ligand)
chain: GPLGLAG[PEG4′]APTSSSTKKTQLQLEHLLLDLQEILNGINNYKNPKLTR[Nle]L[hSer][Yn3(4)]KF[Ygp(4)][Nle]PKKATELKHLQCLEEELKPLEEVL[hSer]LAQSKNFHLRPRDLISNINVIVLELKGSETTF[hSer]CEYADETATIVEFLNRWITFSQSIISTLT
modifications: lactam N-31; ends not checked
Regarding B1, the “Average EC50, pSTAT5 Assay (T cells)” value in experiment [1] was determined as 94.7 nM. The “Average EC50, pSTAT5 Assay in NK cells” value in experiment [2] was found to be 38.1 nM.

B2: CMP-300, MMP2 cleaved molecule (ligand)
chain: APTSSSTKKTQLQLEHLLLDLQEILNGINNYKNPKLTR[Nle]L[hSer][Yn3(4)]KF[Ygp(4)][Nle]PKKATELKHLQCLEEELKPLEEVL[hSer]LAQSKNFHLRPRDLISNINVIVLELKGSETTF[hSer]CEYADETATIVEFLNRWITFSQSIISTLT
modifications: not fully specified; ends and bridges not checked; also: cleaved by MMP2, product not given here, N-terminus linked to another sequence via PEG4, Glu23 side chain linked to another sequence
Consider B2, for which, in experiment [1], the “Average EC50, pSTAT5 Assay (T cells)” value is 1.73 nM. Further, the “Average EC50, pSTAT5 Assay in NK cells” value in experiment [2] turned out to be 0.379 nM.

B3: CMP-319 (ligand)
chain: RGRRVANLVGAPTSSSTKKTQLQLEHLLLDLQEILNGINNYKNPKLTR[Nle]L[hSer][Yn3]KF[Ygp][Nle]PKKATELKHLQCLEEELKPLEEVL[hSer]LAQSKNFHLRPRDLISNINVIVLELKGSETTF[hSer]CEYADETATIVEFLNRWITFSQSIISTLT
modifications: lactam N-33; ends not checked
Consider B3, for which, in experiment [3], the Kd was found to be 59.5 nM, the koff is 0.0122 s⁻¹ and the kon amounted to 206000 M⁻¹ s⁻¹. For the same molecule, in experiment [4], the Kd came out at 9.19 nM, the koff was 0.000786 s⁻¹ and the kon amounted to 85500 M⁻¹ s⁻¹. The “Average EC50, HEK-Blue IL-2R (CD122+, CD132+) Reporter Assay, intact molecule” value in experiment [5] came out at 1.05 nM.

B4: CMP-138 (ligand)
chain: [PEG4′]SGGPGPAGMKGLPGS[PEG4′]APTSSSTKKTQLQLEHLLLDLQ[Nle]ILNGIENYKNPKLTR[Nle]L[hSer][Yn3(3)]KF[Ygp(3)][Nle]PKKATELKHLQCLEEELKPLEEVL[hSer]LAQSKNFHLRPRDLISNINVIVLELKGSETTF[hSer]CEYADETATIVEFLNRWITFSQSIISTLT
modifications: bridge (positions not given here); not fully specified (bridges); numbers in words are those of the source; also: Cys58-Cys105 disulfide expected from oxidative folding
In the case of B4, in experiment [3], the Kd worked out at 11.7 nM, the koff was 0.0105 s⁻¹ and the on-rate (kon) turned out to be 898000 M⁻¹ s⁻¹. Further, in experiment [4], the Kd was 12.3 nM, the koff came to 0.00284 s⁻¹ and the kon came to 232000 M⁻¹ s⁻¹.

B5: CMP-146 (ligand)
chain: APTSSSTKKTKLQLEHLLLDLQ[Nle]ILNGINNYKNPKLTR[Nle]L[hSer][Yn3(3)]KF[Ygp(3)][Nle]PKKATELKHLQCLEEELKPLEEVL[hSer]LAQSKNFHLRPRDLISNINVIVLELKGSETTF[hSer]CEYADETATIVEFLNRWITFSQSIISTLT
modifications: also: further groups not given here
On to B5, for which, in experiment [6], the “Average EC50, pSTAT5 Assay (T cells), intact molecule” value worked out at 4.29 nM.

B6: CMP-136 (ligand)
chain: [PEG9′]PLGLAG[PEG9′]APTSSSTKKTQLQLEHLLLDLQ[Nle]ILNGIENYKNPKLTR[Nle]L[hSer][Yn3]KF[Ygp][Nle]PKKATELKHLQCLEEELKPLEEVL[hSer]LAQSKNFHLRPRDLISNINVIVLELKGSETTF[hSer]CEYADETATIVEFLNRWITFSQSIISTLT
modifications: bridge N-37; not fully specified (bridges)
Consider B6, for which, in experiment [3], the Kd is 8.44 nM, the koff came to 0.00767 s⁻¹ and the kon was 909000 M⁻¹ s⁻¹. In experiment [4], the Kd is 12.6 nM, the koff was determined as 0.00498 s⁻¹ and the kon is 396000 M⁻¹ s⁻¹.
